Measurements taken from US20260166085A1 (BEAM THERAPEUTICS, published 2026).
Values belong to the binder of their own block, whether it stands above or below them.

How the values were obtained:
[1] = molecular target: T1, Wild type CD117 expressed on cells (M07e cells, unedited human CD34+ HSPCs) (human, UniProt P10721 26-976); experiment: cell-based or functional assay
[2] = molecular target: T1, Wild type CD117 expressed on cells …; experiment: cell-based or functional assay; remark: listed apart in the source
[3] = molecular target: T2, Wild type CD117 purified protein (human, UniProt P10721 26-520, limits assumed); experiment: summary Table 75 (repeats Table 71)
T2 construct: Protein used in BLI/kinetics and cryo-EM; also called wt CD117; Wt CD117
T2 sequence (P10721 26-520 limits assumed): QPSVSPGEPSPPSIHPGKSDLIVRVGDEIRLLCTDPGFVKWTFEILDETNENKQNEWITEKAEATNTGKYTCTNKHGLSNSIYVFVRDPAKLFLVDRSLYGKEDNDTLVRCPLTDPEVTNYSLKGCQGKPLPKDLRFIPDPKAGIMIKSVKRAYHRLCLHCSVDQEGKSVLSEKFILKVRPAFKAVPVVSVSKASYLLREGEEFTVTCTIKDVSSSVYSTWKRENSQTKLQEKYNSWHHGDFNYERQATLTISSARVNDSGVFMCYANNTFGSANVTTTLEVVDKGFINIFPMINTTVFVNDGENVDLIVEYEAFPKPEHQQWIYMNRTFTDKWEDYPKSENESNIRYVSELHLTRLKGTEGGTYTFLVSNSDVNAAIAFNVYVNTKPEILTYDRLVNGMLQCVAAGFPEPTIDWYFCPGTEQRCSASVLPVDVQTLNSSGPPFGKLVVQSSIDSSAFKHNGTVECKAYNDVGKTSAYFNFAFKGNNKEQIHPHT

[4] = molecular target: T1, Wild type CD117 expressed on cells …; experiment: summary Table 75 (repeats Table 73)
[5] = molecular target: T2, Wild type CD117 purified protein; experiment: monovalent KD, CD117 titrated (FIGS. 73A-73E)
[6] = molecular target: T1, Wild type CD117 expressed on cells …; experiment: flow cytometry on M07e cells, AF647 secondary (FIG. 76A)
[7] = molecular target: T3, Cyno CD117 (cynomolgus, UniProt F6V858 26-520 (rhesus entry)); experiment: KD, method not stated (Table 8B)
T3 construct: also called cynomolgus CD117
T3 sequence (chain, as listed by the source): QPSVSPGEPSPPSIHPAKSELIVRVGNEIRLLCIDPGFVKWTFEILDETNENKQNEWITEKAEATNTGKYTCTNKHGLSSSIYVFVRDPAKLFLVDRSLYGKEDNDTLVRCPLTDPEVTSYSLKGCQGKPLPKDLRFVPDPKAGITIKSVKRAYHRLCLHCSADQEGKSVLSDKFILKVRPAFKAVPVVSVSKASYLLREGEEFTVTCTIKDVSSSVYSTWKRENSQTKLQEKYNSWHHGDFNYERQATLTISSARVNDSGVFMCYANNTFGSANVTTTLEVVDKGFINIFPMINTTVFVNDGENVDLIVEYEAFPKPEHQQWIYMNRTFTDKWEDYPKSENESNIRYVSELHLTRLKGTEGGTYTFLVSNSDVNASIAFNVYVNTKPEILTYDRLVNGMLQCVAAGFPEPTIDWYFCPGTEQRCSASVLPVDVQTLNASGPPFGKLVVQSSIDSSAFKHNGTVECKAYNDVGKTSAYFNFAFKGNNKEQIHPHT

[8] = molecular target: T2, Wild type CD117 purified protein; experiment: KD, method not stated (Table 8B)
[9] = molecular target: T4, CC128 variant of CD117 (Y259C + N260D) expressed on cells (M07e, CD34+ HSPCs) (human, UniProt P10721 26-976); experiment: binding to edited M07e cells (Table 8B)
T4 construct: Edited cell pools also hold minor alleles (Y259C alone, N260D alone); also called CC128-edited CD117; CC128-M07e
T4 sequence (P10721 26-976 Y259C/N260D limits assumed): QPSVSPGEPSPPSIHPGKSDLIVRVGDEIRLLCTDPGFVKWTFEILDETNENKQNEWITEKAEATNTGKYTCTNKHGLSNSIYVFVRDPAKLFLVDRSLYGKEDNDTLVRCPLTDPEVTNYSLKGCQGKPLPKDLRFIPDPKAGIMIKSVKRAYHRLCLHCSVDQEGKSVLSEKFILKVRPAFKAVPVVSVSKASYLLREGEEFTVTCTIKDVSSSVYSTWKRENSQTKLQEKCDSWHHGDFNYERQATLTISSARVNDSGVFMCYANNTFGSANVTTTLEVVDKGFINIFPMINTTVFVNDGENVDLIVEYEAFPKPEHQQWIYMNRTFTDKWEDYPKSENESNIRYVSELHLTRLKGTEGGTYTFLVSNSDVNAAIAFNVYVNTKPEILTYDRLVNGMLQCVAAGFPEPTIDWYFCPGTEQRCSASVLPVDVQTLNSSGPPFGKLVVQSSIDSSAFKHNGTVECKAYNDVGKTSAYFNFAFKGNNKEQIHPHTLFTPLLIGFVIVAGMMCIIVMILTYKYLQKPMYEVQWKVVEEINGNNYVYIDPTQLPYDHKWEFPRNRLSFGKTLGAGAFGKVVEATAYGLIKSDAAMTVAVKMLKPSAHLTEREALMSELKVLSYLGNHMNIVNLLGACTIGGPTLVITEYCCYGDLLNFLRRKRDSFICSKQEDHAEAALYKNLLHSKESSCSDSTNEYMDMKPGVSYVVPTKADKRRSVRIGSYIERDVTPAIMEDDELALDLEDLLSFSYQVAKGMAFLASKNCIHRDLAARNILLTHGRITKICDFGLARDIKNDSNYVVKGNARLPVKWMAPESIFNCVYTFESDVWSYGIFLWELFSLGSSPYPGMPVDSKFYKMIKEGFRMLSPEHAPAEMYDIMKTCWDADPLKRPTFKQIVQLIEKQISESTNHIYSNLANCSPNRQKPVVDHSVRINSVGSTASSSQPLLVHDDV

[10] = molecular target: T2, Wild type CD117 purified protein; experiment: binding kinetics grade, FIGS. 55A-55C
[11] = molecular target: T1, Wild type CD117 expressed on cells …; experiment: flow cytometry (MFI) on M07e cells (FIG. 59)
[12] = molecular target: T2, Wild type CD117 purified protein; experiment: binding kinetics, antibody 333.3 to 5.2 nM (FIGS. 58A-58D)
[13] = molecular target: T2, Wild type CD117 purified protein; experiment: binding kinetics, FIGS. 45A-45K
[14] = molecular target: T5, CC128 variant of CD117 (Y259C + N260D) purified protein (human, UniProt P10721 26-520, limits assumed); experiment: binding kinetics, FIGS. 45A-45K
T5 construct: also called CC128-edited CD117 as purified protein
T5 sequence (P10721 26-520 Y259C/N260D limits assumed): as the sequence (P10721 26-520 limits assumed) above, with Y234C, N235D counted along it

[15] = molecular target: CC200 variant of CD117 (S261G) purified protein (human, UniProt P10721 26-520, limits assumed); experiment: binding kinetics, FIGS. 45A-45K
Chain of CC200 variant of CD117 (S261G) purified protein (P10721 26-520 S261G limits assumed): as the sequence (P10721 26-520 limits assumed) above, with S236G counted along it

[16] = molecular target: T1, Wild type CD117 expressed on cells …; experiment: flow cytometry on M07e cells expressing wild type CD117, 1 h (FIG. 87A)
[17] = molecular target: wild type CD117 extracellular domain (ECD) protein (human, UniProt P10721 26-524); experiment: BLI (Octet), antibody on AHC biosensor, CD117 ECD titrated 1:2 from 345 nM
Chain of wild type CD117 extracellular domain (ECD) protein (P10721 26-524 limits assumed): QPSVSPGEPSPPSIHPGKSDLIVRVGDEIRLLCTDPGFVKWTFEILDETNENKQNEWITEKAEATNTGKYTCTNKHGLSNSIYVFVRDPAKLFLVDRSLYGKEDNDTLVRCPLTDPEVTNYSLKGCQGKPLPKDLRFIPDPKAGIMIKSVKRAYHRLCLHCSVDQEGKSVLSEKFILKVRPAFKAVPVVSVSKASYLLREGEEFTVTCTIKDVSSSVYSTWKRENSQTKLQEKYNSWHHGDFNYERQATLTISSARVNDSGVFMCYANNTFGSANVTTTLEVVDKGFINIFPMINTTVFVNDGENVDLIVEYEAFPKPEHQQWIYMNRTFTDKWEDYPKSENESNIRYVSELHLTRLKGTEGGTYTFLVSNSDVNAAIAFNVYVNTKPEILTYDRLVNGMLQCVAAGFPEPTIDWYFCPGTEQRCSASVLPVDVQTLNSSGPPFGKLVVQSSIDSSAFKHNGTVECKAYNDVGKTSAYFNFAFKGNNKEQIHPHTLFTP
Protocol: The AHC biosensor data was analyzed using Octet Analysis Studio software.

[18] = molecular target: T5, CC128 variant of CD117 (Y259C + N260D) …; experiment: BLI (Octet), CC128 variant on SA biosensor, antibody titrated 1:2 from 2.5 µM
Protocol: Binding to the CC128 variant of CD117 was determined using streptavidin (SA) biosensors, which were allowed to bind the CC128 variant from a 5 μg/ml solution thereof. The SA biosensors were then titrated with monoclonal antibodies starting at 2.5 μM and using titration increments of 1:2. Data was analyzed using the Octet Analysis Studio Software.

[19] = molecular target: T6, CC89 variant of CD117 (T144A) on M07e cells (human, UniProt P10721 26-976); experiment: binding to edited M07e cells (Table 8B)
T6 construct: also called CC89-M07e
T6 sequence (P10721 26-976 T144A limits assumed): as the sequence (P10721 26-976 Y259C/N260D limits assumed) above, with T119A, C234Y, D235N counted along it

T1 sequence (P10721 26-976 limits assumed): as the sequence (P10721 26-976 Y259C/N260D limits assumed) above, with C234Y, D235N counted along it

B1: ABTx167 (antibody, human IgG1, kappa, L234A L235A)
heavy: QVQLVQSGAAVKKPGESLKISCKGSGYRFTSYWIGWVRQMPGKGLEWMGIIYPGDSDTRYSPSFQGQVTISAGKSISTAYLQWSSLKASDTAMYYCARHGRGYNGYEGAFDIWGQGTMVTVSSASTKGPSVFPLAPSSKSTSGGTAALGCLVKDYFPEPVTVSWNSGALTSGVHTFPAVLQSSGLYSLSSVVTVPSSSLGTQTYICNVNHKPSNTKVDKKVEPKSCDKTHTCPPCPAPEAAGGPSVFLFPPKPKDTLYITREPEVTCVVVAVSHEDPEVKFNWYVDGVEVHNAKTKPREEQYNSTYRVVSVLTVLHQDWLNGKEYKCKVSNKALPAPIEKTISKAKGQPREPQVYTLPPSRDELTKNQVSLTCLVKGFYPSDIAVEWESNGQPENNYKTTPPVLDSDGSFFLYSKLTVDKSRWQQGNVFSCSVMHEALHNHYTQKSLSLSPG
light: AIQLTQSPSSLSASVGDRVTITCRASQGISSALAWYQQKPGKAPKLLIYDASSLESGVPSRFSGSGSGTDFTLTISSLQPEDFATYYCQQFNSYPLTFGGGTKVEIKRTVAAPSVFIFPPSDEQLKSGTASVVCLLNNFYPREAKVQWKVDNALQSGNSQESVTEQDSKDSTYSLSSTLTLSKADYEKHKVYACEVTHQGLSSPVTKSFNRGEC
- IC50 [M], viability of unedited HSCs with 100 ng/mL SCF, 5-7 days [1]: 2.56e-07 M

B2: ABTx196 (antibody, human IgG1, V domains shown)
VH: EVQLVESGGGLVQPGRSLRLSCAASGFTFDDYAMHWVRQAPGKGLEWVSGISWNSGTIGYADSVKGRFTNSRDNAKNSLYLEMNSLRAEDTALYYCAKDSPPGYCSSASCYGAFDIWGQGTMVTVSS
VL: DVVMTQSPGTLSLSPGERATLSCRASQSVSSSYLAWYQQKPGQAPRLLIYGASSRATGIPDRFSGSGSGTDFTLTISRLEPEDFAVYYCQQSETCLTFGGGTKLEIK
- IC50 (M), depletion of human CD34+ HSPCs [2]: 1.3e-05 M
- Kd [3]: 8.18 nM
- EC50 [4]: 5.21 nM
- Kd [5]: 8.18 nM
- koff [5]: 0.000691 s⁻¹
- kon [5]: 84400 M⁻¹ s⁻¹
- EC50 [6]: 5.21 nM

B3: ABTx061 (antibody, human IgG1, kappa, V domains shown)
VH: EVQLVESGGGLVQPGRSLRLSCAASGFTFDDYAMHWVRQAPGKGLEWVSGISWNSGSIGYADSVKGRFTISRDNAKNSLYLQMNSLRAEDTALYYCAKDTPLGYCSTTSCYGAFDIWGQGTMVTVSS
VL: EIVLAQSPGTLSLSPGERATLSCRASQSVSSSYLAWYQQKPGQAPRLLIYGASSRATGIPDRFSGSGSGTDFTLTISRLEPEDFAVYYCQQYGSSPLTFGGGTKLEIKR
- Kd [7]: 29.5 nM
- Kd [8]: 18.6 nM
- binding result [9]: no binding

B4: ABTx025 (antibody, human IgG1, kappa, V domains shown)
VH: EVQLVESGGGLVQPGRSLRLSCAASGFTFDDYAMHWVRQAPGKGLEWVSGISWNSGTIGYADSVKGRFTNSRDNAKNSLYLEMNSLRAEDTALYYCAKDSPPGYCSSASCYGAFDIWGQGTMVTVSS
VL: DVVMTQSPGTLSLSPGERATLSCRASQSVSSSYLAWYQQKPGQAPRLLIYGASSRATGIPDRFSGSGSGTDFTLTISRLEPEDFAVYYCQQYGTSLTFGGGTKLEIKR
- Kd [7]: 5.31 nM
- Kd [8]: 1.25 nM
- Kd [3]: 1470 nM
- binding result [9]: no binding
- Kd [5]: 1470 nM
- koff [5]: 0.0509 s⁻¹
- kon [5]: 37200 M⁻¹ s⁻¹

B5: ABTx062 (antibody, human IgG1, kappa, V domains shown)
VH: EVQLVESGGGLVQPGRSLRLSCSASGFTFDDYAMHWVRQAPGKGLEWVSGISWNSGTIGYADSVKGRFTISRDNAKNSLYLQMNSLRAEDTALYYCAKDSPPGYCSSASCYGAFDIWGQGTTVTVSS
VL: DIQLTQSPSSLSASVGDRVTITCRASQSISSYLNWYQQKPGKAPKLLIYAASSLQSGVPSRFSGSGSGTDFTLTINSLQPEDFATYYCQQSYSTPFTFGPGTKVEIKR
- Kd [7]: 31.8 nM
- Kd [8]: 18 nM
- binding result [9]: no binding

B9: ABTx052 variant VL_Y94S (antibody, human IgG1, V domains shown)
VH: QVQLVQSGAAVKKPGESLKISCKGSGYRFTSYWIGWVRQMPGKGLEWMGIIYPGDSDTRYSPSFQGQVTISAGKSISTAYLQWSSLKASDTAMYYCARHGRGYNGYEGAFDIWGQGTMVTVSS
VL: AIQLTQSPSSLSASVGDRVTITCRASQGISSALAWYQQKPGKAPKLLIYDASSLESGVPSRFSGSGSGTDFTLTISSLQPEDFATYYCQQFNSSPLTFGGGTKVEIK
- Kd [13]: 3.38 nM
- koff [13]: 0.00218 s⁻¹
- kon [13]: 643000 M⁻¹ s⁻¹
- binding result [14]: no binding
- binding result [15]: no binding

Continued, in another order:

- IC50 (M), depletion of human CD34+ HSPCs [2]: 3.59e-06 M
- Kd [3]: 1.2 nM
- EC50 [4]: 5.42 nM
- Kd [5]: 1.2 nM
- koff [5]: 8.74e-05 s⁻¹
- kon [5]: 72800 M⁻¹ s⁻¹
- EC50 [6]: 5.42 nM
B6: ABTx198 (antibody, human IgG1, V domains shown)
VH: EVQLVESGGGLVQPGRSLRLSCAASGFTFDDYAMHWVRQAPGKGLEWVSGISWNSGTIGYADSVKGRFTNSRDNAKNSLYLEMNSLRAEDTALYYCAKDSPPGYCASASCYGAFDIWGQGTMVTVSS
VL: DVVMTQSPGTLSLSPGERATLSCRASQSVSSSYLAWYQQKPGQAPRLLIYGASSRATGIPDRFSGSGSGTDFTLTISRLEPEDFAVYYCQQDSLGLTFGGGTKLEIK

- binding result [10]: no binding
B7: ABTx252 (antibody, human IgG1, kappa, V domains shown)
VH: QVQLVQSGAAVKKPGESLKISCKGSGYRFTSYWIGWVRQMPGKGLEWMGIIYPGDSDTRYSPSFQGQVTISAGKSISTAYLQWSSLKASDTAMYYCARHGRGYDGYEGAFDIWGQGTMVTVSS
VL: AIQLTQSPSSLSASVGDRVTITCRASQGISSALAWYQQKPGKAPKLLIYDASSLESGVPSRFSGSGSGTDFTLTISSLQPEDFATYYCQQFNSHPLTFGGGTKVEIKR

- EC50 [11]: 0.0529 nM
- Kd [12]: 13.1 nM
- koff [12]: 0.00408 s⁻¹
- kon [12]: 312000 M⁻¹ s⁻¹
B8: ABTx253 (antibody, human IgG1, kappa, V domains shown)
VH: QVQLVQSGAAVKKPGESLKISCKGSGYRFTSYWIGWVRQMPGKGLEWMGIIYPGDSDTRYSPSFQGQVTISAGKSISTAYLQWSSLKASDTAMYYCARHGRGYDGYEGAFDIWGQGTMVTVSS
VL: AIQLTQSPSSLSASVGDRVTITCRASQGISSALAWYQQKPGKAPKLLIYDASSLESGVPSRFSGSGSGTDFTLTISSLQPEDFATYYCQQFSSYPLTFGGGTKVEIKR
- IC50 [M], viability of unedited HSCs with 100 ng/mL SCF, 5-7 days [1]: 2.21e-06 M

- EC50 [16]: 0.398 nM
- Kd [17]: 8.48 nM
- koff [17]: 0.0166 s⁻¹
- kon [17]: 1.95e+06 M⁻¹ s⁻¹
- Kd [18]: 7.49 nM
B10: ABTx308 (antibody, human IgG1, kappa, L234A L235A, V domains shown)
VH: QVQLVQSGAAVKKPGESLKISCKGSGYRFTSYWIGWVRQMPGKGLEWMGIIYPGDSDTKYSPSFQGQVTISAGKSISTAYLQWSSLKASDTAMYYCARHGRGYDAYDGAFDIWGQGTMVTVSS
VL: AIQLTQSPSSLSASVGDRVTITCRASQGISSALAWYQQKPGKAPKLLIYDASSLESGVPSRFSGSGSGTDFTLTISSLQPEDFATYYCQQFSSYPLTFGGGTKVEIKR
notes: Fc with LALADA

- Kd [7]: 0.486 nM
- Kd [8]: 6.5 nM
B11: ABTx070 (antibody, human IgG1, kappa, V domains shown)
VH: EVQLVESGGGVVRPGGSLRLSCAASGFTFDDYGMSWVRQAPGKGLEWVSDINWNGGSTGYADSVKGRFTISRDNAKNSLYLQMNSLRAEDTALYYCARESWDGSGIYYMDVWGKGTTVTVSS
VL: DIVMTQSPSFLSASVGDRVTITCRASQGISSYLNWYQQKPGKAPKLLIYAASTLQNGVPSRFSGSGSGTDFTLTISSLQPEDFATYYCQQSYSTPITFGQGTRLEIKR
- binding result [19]: no binding

- Kd [7]: 4.28 nM
- Kd [8]: 0.523 nM
B12: ABTx071 (antibody, human IgG1, kappa, V domains shown)
VH: EVQLVESGGGVVRPGGSLRLSCAASGFTFDDYGMSWVRQAPGKGLEWVSGINWNGGSTGYADSVKGRFTISRDNAKNSLHLQMNSLRAEDTALYYCARESWNYEGYYYMDVWGKGTTVTVSS
VL: AIQMTQSPSFLSASVGDRVTITCRASQGISSYLAWYQQKPGKAPKLLIYAASTLQNGVPSRFSGSGSGTEFTLTISSLQPEDFATYYCQQLNSYPYTFGQGTKLEIKR
- binding result [19]: no binding
